From patent publication US20060275823A1

Molecular target: GG (GST-ICS linker-GFP model substrate for ICE) [GST: P08515]
Assay: cell-based or functional assay

In the case of KARKEAELAAATAEQ [LEPB], the IC50 of inhibition of the cleavage of GG by ICE is reported as 50 to 100 µM.
